Results published in paper PMC3626232 (The Journal of biological chemistry, 2000).

How the values were obtained:
SEC = molecular target: the molecule itself; test: SEC
XMcm(2+4+6+7) tetramer = XMcm(2+4+6+7) tetramer (Xenopus (endogenous in Xenopus egg …, UniProt P55861 1-886; P30664 1-863; Q5FWY4 1-821; Q91876 1-720); test: SEC
XMcm(2+4+6+7) tetramer (Xenopus, sequence (P30664 whole entry, chain 2 of 2): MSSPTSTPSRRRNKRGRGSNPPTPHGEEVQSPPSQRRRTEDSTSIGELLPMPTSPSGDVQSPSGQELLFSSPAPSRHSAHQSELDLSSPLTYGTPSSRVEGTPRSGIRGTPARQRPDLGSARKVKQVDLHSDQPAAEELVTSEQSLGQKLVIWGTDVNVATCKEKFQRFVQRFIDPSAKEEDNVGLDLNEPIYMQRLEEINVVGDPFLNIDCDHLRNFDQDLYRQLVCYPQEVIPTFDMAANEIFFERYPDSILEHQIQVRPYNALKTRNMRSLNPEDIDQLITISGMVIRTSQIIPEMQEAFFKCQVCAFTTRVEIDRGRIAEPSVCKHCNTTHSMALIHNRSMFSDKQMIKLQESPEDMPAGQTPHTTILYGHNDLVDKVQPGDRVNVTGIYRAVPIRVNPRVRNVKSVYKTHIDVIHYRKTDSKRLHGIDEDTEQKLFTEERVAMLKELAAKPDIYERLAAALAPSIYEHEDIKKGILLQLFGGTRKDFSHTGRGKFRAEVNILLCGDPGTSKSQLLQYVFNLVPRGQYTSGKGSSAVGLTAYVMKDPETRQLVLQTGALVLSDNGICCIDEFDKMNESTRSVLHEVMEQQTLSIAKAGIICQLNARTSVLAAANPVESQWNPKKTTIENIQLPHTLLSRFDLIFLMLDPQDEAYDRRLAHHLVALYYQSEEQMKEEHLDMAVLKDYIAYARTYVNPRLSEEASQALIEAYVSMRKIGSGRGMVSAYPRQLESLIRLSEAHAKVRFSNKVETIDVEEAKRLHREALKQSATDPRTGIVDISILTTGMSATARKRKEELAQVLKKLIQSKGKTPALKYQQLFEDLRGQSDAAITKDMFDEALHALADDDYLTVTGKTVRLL
XMcm(2+4+6+7) tetramer (Xenopus, sequence (Q5FWY4 whole entry, chain 3 of 2): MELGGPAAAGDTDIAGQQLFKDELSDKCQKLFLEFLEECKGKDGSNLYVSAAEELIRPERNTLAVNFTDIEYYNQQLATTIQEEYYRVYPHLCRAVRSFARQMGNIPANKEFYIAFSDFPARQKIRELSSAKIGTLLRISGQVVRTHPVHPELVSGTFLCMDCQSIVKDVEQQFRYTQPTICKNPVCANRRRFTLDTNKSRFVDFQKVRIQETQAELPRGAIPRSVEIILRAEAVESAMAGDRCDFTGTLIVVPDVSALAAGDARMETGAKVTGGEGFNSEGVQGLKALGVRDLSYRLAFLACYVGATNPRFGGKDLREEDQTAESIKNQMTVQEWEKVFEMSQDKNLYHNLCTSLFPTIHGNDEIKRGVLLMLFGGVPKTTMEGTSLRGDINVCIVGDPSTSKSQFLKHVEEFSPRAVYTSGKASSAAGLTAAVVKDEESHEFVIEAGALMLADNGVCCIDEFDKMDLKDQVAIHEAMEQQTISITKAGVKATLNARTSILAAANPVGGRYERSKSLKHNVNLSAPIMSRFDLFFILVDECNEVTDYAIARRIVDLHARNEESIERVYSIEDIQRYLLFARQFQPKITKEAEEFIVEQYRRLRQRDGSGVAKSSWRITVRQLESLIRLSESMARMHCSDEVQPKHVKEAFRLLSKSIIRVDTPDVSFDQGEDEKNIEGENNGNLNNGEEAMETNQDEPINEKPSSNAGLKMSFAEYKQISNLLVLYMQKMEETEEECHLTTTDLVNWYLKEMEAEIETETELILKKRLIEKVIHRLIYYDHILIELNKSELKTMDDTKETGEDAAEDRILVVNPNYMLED

binding result (XMcm(2+4+6+7) tetramer)	Binder	stoichiometry N (SEC)
–	XMcm2 (natural protein, UniProt P55861 1-886, looked up) MADSSESFNIATSPRAGSRRDALTSSPGRDLPPFEDESEGMFGDGVVPEEEEDGEELIGDAMERDYRPISELDRYEVEGLDDEEDVEDLTASQREAAEQSMRMRDREMGRELGRMRRGLLYDSDEEEEDRPARKRRMAERAAEGAPEEDEEMIESIENLEDMKGHTVREWVSMAATRLEIYHRFKNFLRTHVDEHGHNVFKEKISDMCKENKESLPVNYEDLAAREHVLAYFLPEAPAEMLKIFDEAAKEVVLVMYPKYDRIAREIHVRISHLPLVEELRSLRQLHLNQLIRTSGVVTCCTGVLPQLSMVKYNCNKCNFILGPFFQSQNQEVRPGSCPECQSFGPFEINMEETVYQNYQRITIQESPGKVAAGRLPRSKDAILLADLVDSCKPGDEIELTGIYHNNYDGSLNTANGFPVFATVILANHITKKDDKVAVGELTDEDVKAIVALSKDERIGERIFASIAPSIYGHEDIKRGLALALFGGEAKNPGGKHKVRGDINVLLCGDPGTAKSQFLKYVEKVASRAVFTTGQGASAVGLTAYVQRHPVTKEWTLEAGALVLADRGVCLIDEFDKMNDQDRTSIHEAMEQQSISISKAGIVTSLQARCTVIAASNPIGGRYDPSLTFSENVDLTEPIVSRFDILCVVRDTVDPVQDEMLARFVVSSHIKHHPSSKDIANGDAAEFALPNTFGVEALPQEVLKKYIMYAKEKIRPKLNQMDQDKVAKMYSDLRKESMATGSIPITVRHIESMIRMAEAHARMHLRDYVVEDDVNMAIRVMLESFIDTQKFSVMRSMRKTFARYLAFRRDNNELLLFVLKQLIAEQVTYQRNRYGAQQDTIEVPEKDLVDKARQINIHNLSAFYDSDLFKMNKFTHDVKKKLIIQQF	2
binds	XMcm(3+7) hetero-dimer (complex) chain 1: MDYGGGFEDHELREAQREYLDFLDDDQDQGLYHGKVRDMIGSNEHRLIVNLNDVRRKNDKRANLMLNDAFAETIAFQRALKDLVASIDATYAKQFEEFSVGFEGSFGSKHVSPRTLTASLLGSLVCVEGIVTKCSLVRPKVMRSVHYCPATKKTLERKYSDLTSLEAFPSSSIYPTKDEENNPLETEYGLSTYKDHQTLSIQEMPEKAPAGQLPRSVDIIADDDLVDKCKPGDRVQIVGIYRCLPSKQGGFTSGTFRTILLANNIKLMSKEIAPTFSADDVAKIKKFCKAHSKDIFEHLSKSLAPSIHGHEYIKKAILCMLLGGNEKVLENGTRIRGDINVLLIGDPSVAKSQLLRYVLHTAPRAIPTTGRGSSGVGLTAAVTTDQETGERRLEAGAMVLADRGVVCIDEFDKMSDMDRTAIHEVMEQGRVTIAKAGIQARLNARCSVLAAANPVYGRYDQYRTPMENIGLQDSLLSRFDLLFIVLDKMDADNDQEIADHVLRMHRYRTPGEQDGYALPLGCSVEIFATDDPNASDVTDQELQIYEKHDNLLHGPRKNKSKIVSMQFIRKYIHVAKLIKPVLTSEAADYISQEYAKIRNHDQINNDSARTMPVTARALETMIRLSTAHAKVRMSKTIERQDAETALELVQFAYFKKVLAKEKKKTDKDLHDENLSQDTLSQESVRKSSRRAGKIADSQDDSMDPYSFSEQDSSLNENLSQSLRPQRKKAESQDGKRSLSQNRTKEFKAALLKAFKSSRSQSVAVSQLLELINKGNPEPFERSEVKEALDNMQNDNQVMVSEDVVFLI chain 2: MPRDYQTEKEKCKTFLQEFYKDDEIGKKHFKYGVQLANIAHREQVALYIDLDDLAEEDPELVDAICENTRRYTNLFADAVQELLPQYKEREVVHKDALDVYIEHRLMMEQRGRDPNEMRDSQNQYPPELMRRFELYFKAPSSSKARVVRDVKADSIGKLVNIRGIVTRVTEVKPMMVVATYTCDQCGAETYQPIQSPTFMPLIMCPSRECQTNRSGGRLYLQTRGSKFIKFQELKIQEHSDQVPVGNIPRCMSVYVRGENTRLAQPGDHVGITGVFLPMLRTGFRQVVQGLLSETYLECHRLVKMNKSEDDELGTEELSEEELRQITEEDFYEKLAASIAPEIYGHEDVKKALLLLLVGGVDNSPRGMKIRGNINICLMGDPGVAKSQLLSYIDRLAPRSQYTTGRGSSGVGLTAAVMKDPVTGEMTLEGGALVLADQGVCCIDEFDKMMDTDRTAIHEVMEQQTISIAKAGIMTTLNARCSILAAANPAYGRYNPKKTVEQNIQLPAALLSRFDVLWLIQDKPDRDNDLRLAQHITYVHQHSKQPPSQFQPLDMKLMRRYITMCKRKQPAIPEALADYLTAAYVEMRKEARTNKDMTFTSARTLLSVLRLSTALARLRLEDVVEKEDVNEAMRLMEMSKDSLLGDKGHTSRTQRPADVIFSTIREMVPEKGARSVKYSEAEQRCVSKGFTPAQFEAALEEYEELNVWLVNQARTKITFV	–
